Columns and labels:
[1] = molecular target: T1, recombinant human EGFR-His (human, UniProt P00533 25-645); assay: SPR, single point mutant scFv constructs
T1 construct: also called epidermal growth factor receptor; ErbB-1; not shown: His tag (EGFR-His)

[2] = molecular target: T2, recombinant rhesus EGFR-His (rhesus macaque, UniProt P55245 25-645, limits assumed); assay: SPR, single point mutant scFv constructs
T2 construct: also called Rhesus macaque EGFR; not shown: His tag (EGFR-His)

[3] = molecular target: T1, recombinant human EGFR-His; assay: SPR, combination mutant scFv constructs
[4] = molecular target: T2, recombinant rhesus EGFR-His; assay: SPR, combination mutant scFv constructs
[5] = molecular target: T1, recombinant human EGFR-His; assay: SPR, Biacore 8K, 37 C, TriNKET captured on anti-hFc IgG chip, EGFR-His injected, N=4
Method: (§1) Kinetics and affinities of EGFR binding constructs for recombinant human and rhesus EGFR were measured by SPR using a Biacore 8K instrument. Samples were captured on the anti-hFc IgG chip and a range of concentrations of human or rhesus recombinant EGFR-His was injected over captured test articles. Experiments were performed at physiological temperature of 37° C. Data were analyzed using Biacore 8K Insight Evaluation software (GE Healthcare).

[6] = molecular target: T3, EGFR expressed on H2172 human cancer cells (human, UniProt P00533 25-1210); assay: flow cytometry on EGFR-positive H2172 cells, 4 C for 0.5 h, fluorophore-conjugated anti-human IgG secondary antibody
T3 construct: whole, on cells; also called EGFR-positive H2172 cancer cells; EGFR+ cells
Method: This example was designed to assess the binding affinity of the EGFR-targeting TriNKETs to EGFR expressed on cell surface. The H2172 human cancer cell line, derived from non-small cell lung carcinoma, was used. […] Cells were analyzed by flow cytometry and fold MFI over secondary-only controls reported.

[7] = molecular target: T1, recombinant human EGFR-His; assay: SPR, Biacore 8K, 37 C, TriNKET captured on anti-hFc IgG chip, EGFR-His injected, N=4; column head prints KD (nM) but the cells carry E-09
Method: as §1

Molecule	koff [5]	kon [5]	EC50 (read off the curve) [6]	Kd [7]	further results
PANI-L-D92R (scFv)					Kd [1]: 3.27 nM; koff [1]: 0.000839 s⁻¹; kon [1]: 256000 M⁻¹ s⁻¹; Kd [2]: 5.09 nM; koff [2]: 0.00096 s⁻¹; kon [2]: 189000 M⁻¹ s⁻¹
PANI-H_S62R-L_F87Y-L_D92R (scFv, V domains shown, also called EGFR-scFv-3) VH: QVQLQESGPGLVKPSETLSLTCTVSGGSVSSGDYYWTWIRQSPGKCLEWIGHIYYSGNTNYNPRLKSRLTISIDTSKTQFSLKLSSVTAADTAIYYCVRDRVTGAFDIWGQGTMVTVSS VL: DIQMTQSPSSLSASVGDRVTITCQASQDISNYLNWYQQKPGKAPKLLIYDASNLETGVPSRFSGSGSGTDFTFTISSLQPEDIATYYCQHFRHLPLAFGCGTKVEIK					Kd [3]: 3.38 nM; koff [3]: 0.00099 s⁻¹; kon [3]: 293000 M⁻¹ s⁻¹; Kd [4]: 5.36 nM; koff [4]: 0.00112 s⁻¹; kon [4]: 209000 M⁻¹ s⁻¹
EGFR-TriNKET-2 (bispecific antibody, human IgG1, kappa, F3' format with three polypeptides: EGFR-scFv-2 (VL-VH)-Fc, A49MI-VH-CH1-Fc and A49MI-VL-CL; also called EGFR2) DIQMTQSPSSLSASVGDRVTITCQASQDISNYLNWYQQKPGKAPKLLIYDASNLETGVPSRFSGSGSGTDFTFTISSLQPEDIATYYCQHFDHLPLAFGCGTKVEIKGGGGSGGGGSGGGGSGGGGSQVQLQESGPGLVKPSETLSLTCTVSGGSVSSGDYYWTWIRQSPGKCLEWIGHIYYSGNTNYNPRLKSRLTISIDTSKTQFSLKLSSVTAADTAIYYCVRDRVTGAFDIWGQGTMVTVSSGSDKTHTCPPCPAPELLGGPSVFLFPPKPKDTLMISRTPEVTCVVVDVSHEDPEVKFNWYVDGVEVHNAKTKPREEQYNSTYRVVSVLTVLHQDWLNGKEYKCKVSNKALPAPIEKTISKAKGQPREPRVYTLPPCRDELTKNQVSLTCLVKGFYPSDIAVEWESNGQPENNYKTTPPVLVSDGSFTLYSKLTVDKSRWQQGNVFSCSVMHEALHNHYTQKSLSLSPG heavy: EVQLVESGGGLVKPGGSLRLSCAASGFTFSSYSMNWVRQAPGKGLEWVSSISSSSSYIYYADSVKGRFTISRDNAKNSLYLQMNSLRAEDTAVYYCARGAPIGAAAGWFDPWGQGTLVTVSSASTKGPSVFPLAPSSKSTSGGTAALGCLVKDYFPEPVTVSWNSGALTSGVHTFPAVLQSSGLYSLSSVVTVPSSSLGTQTYICNVNHKPSNTKVDKKVEPKSCDKTHTCPPCPAPELLGGPSVFLFPPKPKDTLMISRTPEVTCVVVDVSHEDPEVKFNWYVDGVEVHNAKTKPREEQYNSTYRVVSVLTVLHQDWLNGKEYKCKVSNKALPAPIEKTISKAKGQPREPQVCTLPPSRDELTENQVSLTCLVKGFYPSDIAVEWESNGQPENNYKTTPPVLDSDGSFFLYSWLTVDKSRWQQGNVFSCSVMHEALHNHYTQKSLSLSPG light: DIQMTQSPSSVSASVGDRVTITCRASQGISSWLAWYQQKPGKAPKLLIYAASSLQSGVPSRFSGSGSGTDFTLTISSLQPEDFATYYCQQGVSFPRTFGGGTKVEIKRTVAAPSVFIFPPSDEQLKSGTASVVCLLNNFYPREAKVQWKVDNALQSGNSQESVTEQDSKDSTYSLSSTLTLSKADYEKHKVYACEVTHQGLSSPVTKSFNRGEC	0.000988 s⁻¹	500000 M⁻¹ s⁻¹	~0.5 nM	1.98 nM	
EGFR-TriNKET-3 (bispecific antibody, human IgG1, kappa, F3' format with three polypeptides: EGFR-scFv-3 (VL-VH)-Fc, A49MI-VH-CH1-Fc and A49MI-VL-CL; also called EGFR3) DIQMTQSPSSLSASVGDRVTITCQASQDISNYLNWYQQKPGKAPKLLIYDASNLETGVPSRFSGSGSGTDFTFTISSLQPEDIATYYCQHFRHLPLAFGCGTKVEIKGGGGSGGGGSGGGGSGGGGSQVQLQESGPGLVKPSETLSLTCTVSGGSVSSGDYYWTWIRQSPGKCLEWIGHIYYSGNTNYNPRLKSRLTISIDTSKTQFSLKLSSVTAADTAIYYCVRDRVTGAFDIWGQGTMVTVSSGSDKTHTCPPCPAPELLGGPSVFLFPPKPKDTLMISRTPEVTCVVVDVSHEDPEVKFNWYVDGVEVHNAKTKPREEQYNSTYRVVSVLTVLHQDWLNGKEYKCKVSNKALPAPIEKTISKAKGQPREPRVYTLPPCRDELTKNQVSLTCLVKGFYPSDIAVEWESNGQPENNYKTTPPVLVSDGSFTLYSKLTVDKSRWQQGNVFSCSVMHEALHNHYTQKSLSLSPG heavy: EVQLVESGGGLVKPGGSLRLSCAASGFTFSSYSMNWVRQAPGKGLEWVSSISSSSSYIYYADSVKGRFTISRDNAKNSLYLQMNSLRAEDTAVYYCARGAPIGAAAGWFDPWGQGTLVTVSSASTKGPSVFPLAPSSKSTSGGTAALGCLVKDYFPEPVTVSWNSGALTSGVHTFPAVLQSSGLYSLSSVVTVPSSSLGTQTYICNVNHKPSNTKVDKKVEPKSCDKTHTCPPCPAPELLGGPSVFLFPPKPKDTLMISRTPEVTCVVVDVSHEDPEVKFNWYVDGVEVHNAKTKPREEQYNSTYRVVSVLTVLHQDWLNGKEYKCKVSNKALPAPIEKTISKAKGQPREPQVCTLPPSRDELTENQVSLTCLVKGFYPSDIAVEWESNGQPENNYKTTPPVLDSDGSFFLYSWLTVDKSRWQQGNVFSCSVMHEALHNHYTQKSLSLSPG light: DIQMTQSPSSVSASVGDRVTITCRASQGISSWLAWYQQKPGKAPKLLIYAASSLQSGVPSRFSGSGSGTDFTLTISSLQPEDFATYYCQQGVSFPRTFGGGTKVEIKRTVAAPSVFIFPPSDEQLKSGTASVVCLLNNFYPREAKVQWKVDNALQSGNSQESVTEQDSKDSTYSLSSTLTLSKADYEKHKVYACEVTHQGLSSPVTKSFNRGEC	0.00093 s⁻¹	295000 M⁻¹ s⁻¹	~0.9 nM	3.16 nM	

The next lines start with results.

koff [5]	kon [5]	EC50 (read off the curve) [6]	Kd [7]	Molecule	further results
0.000967 s⁻¹	592000 M⁻¹ s⁻¹	~0.3 nM		EGFR-TriNKET-1 (bispecific antibody, also called EGFR1) scFv-Fc: DIQMTQSPSSLSASVGDRVTITCQASQDISNYLNWYQQKPGKAPKLLIYDASNLETGVPSRFSGSGSGTDFTFTISSLQPEDIATYFCQHFDHLPLAFGCGTKVEIKGGGGSGGGGSGGGGSGGGGSQVQLQESGPGLVKPSETLSLTCTVSGGSVSSGDYYWTWIRQSPGKCLEWIGHIYYSGNTNYNPSLKSRLTISIDTSKTQFSLKLSSVTAADTAIYYCVRDRVTGAFDIWGQGTMVTVSSGSDKTHTCPPCPAPELLGGPSVFLFPPKPKDTLMISRTPEVTCVVVDVSHEDPEVKFNWYVDGVEVHNAKTKPREEQYNSTYRVVSVLTVLHQDWLNGKEYKCKVSNKALPAPIEKTISKAKGQPREPRVYTLPPCRDELTKNQVSLTCLVKGFYPSDIAVEWESNGQPENNYKTTPPVLVSDGSFTLYSKLTVDKSRWQQGNVFSCSVMHEALHNHYTQKSLSLSPG heavy: EVQLVESGGGLVKPGGSLRLSCAASGFTFSSYSMNWVRQAPGKGLEWVSSISSSSSYIYYADSVKGRFTISRDNAKNSLYLQMNSLRAEDTAVYYCARGAPIGAAAGWFDPWGQGTLVTVSSASTKGPSVFPLAPSSKSTSGGTAALGCLVKDYFPEPVTVSWNSGALTSGVHTFPAVLQSSGLYSLSSVVTVPSSSLGTQTYICNVNHKPSNTKVDKKVEPKSCDKTHTCPPCPAPELLGGPSVFLFPPKPKDTLMISRTPEVTCVVVDVSHEDPEVKFNWYVDGVEVHNAKTKPREEQYNSTYRVVSVLTVLHQDWLNGKEYKCKVSNKALPAPIEKTISKAKGQPREPQVCTLPPSRDELTENQVSLTCLVKGFYPSDIAVEWESNGQPENNYKTTPPVLDSDGSFFLYSWLTVDKSRWQQGNVFSCSVMHEALHNHYTQKSLSLSPG light: DIQMTQSPSSVSASVGDRVTITCRASQGISSWLAWYQQKPGKAPKLLIYAASSLQSGVPSRFSGSGSGTDFTLTISSLQPEDFATYYCQQGVSFPRTFGGGTKVEIKRTVAAPSVFIFPPSDEQLKSGTASVVCLLNNFYPREAKVQWKVDNALQSGNSQESVTEQDSKDSTYSLSSTLTLSKADYEKHKVYACEVTHQGLSSPVTKSFNRGEC	
0.000745 s⁻¹	316000 M⁻¹ s⁻¹		2.36 nM	EGFR-TriNKET-4 (bispecific antibody, human IgG1, kappa, F3' format with three polypeptides: EGFR-scFv-4 (VL-VH)-Fc, A49MI-VH-CH1-Fc and A49MI-VL-CL; also called EGFR4) DIQMTQSPSSLSASVGDRVTITCQASQDISNYLNWYQQKPGKAPKLLIYDASNLETGVPSRFSGSGSGTDFTFTISSLQPEDIATYYCQHFRHLPLAFGCGTKVEIKGGGGSGGGGSGGGGSGGGGSQVQLQESGPGLVKPSETLSLTCTVSGGSVSSGDYYWTWIRQSPGKCLEWIGHIYYSGNTNYNPSLKSRLTISIDTSKTQFSLKLSSVTAADTAIYYCVRDRVTGAFDIWGQGTMVTVSSGSDKTHTCPPCPAPELLGGPSVFLFPPKPKDTLMISRTPEVTCVVVDVSHEDPEVKFNWYVDGVEVHNAKTKPREEQYNSTYRVVSVLTVLHQDWLNGKEYKCKVSNKALPAPIEKTISKAKGQPREPRVYTLPPCRDELTKNQVSLTCLVKGFYPSDIAVEWESNGQPENNYKTTPPVLVSDGSFTLYSKLTVDKSRWQQGNVFSCSVMHEALHNHYTQKSLSLSPG heavy: EVQLVESGGGLVKPGGSLRLSCAASGFTFSSYSMNWVRQAPGKGLEWVSSISSSSSYIYYADSVKGRFTISRDNAKNSLYLQMNSLRAEDTAVYYCARGAPIGAAAGWFDPWGQGTLVTVSSASTKGPSVFPLAPSSKSTSGGTAALGCLVKDYFPEPVTVSWNSGALTSGVHTFPAVLQSSGLYSLSSVVTVPSSSLGTQTYICNVNHKPSNTKVDKKVEPKSCDKTHTCPPCPAPELLGGPSVFLFPPKPKDTLMISRTPEVTCVVVDVSHEDPEVKFNWYVDGVEVHNAKTKPREEQYNSTYRVVSVLTVLHQDWLNGKEYKCKVSNKALPAPIEKTISKAKGQPREPQVCTLPPSRDELTENQVSLTCLVKGFYPSDIAVEWESNGQPENNYKTTPPVLDSDGSFFLYSWLTVDKSRWQQGNVFSCSVMHEALHNHYTQKSLSLSPG light: DIQMTQSPSSVSASVGDRVTITCRASQGISSWLAWYQQKPGKAPKLLIYAASSLQSGVPSRFSGSGSGTDFTLTISSLQPEDFATYYCQQGVSFPRTFGGGTKVEIKRTVAAPSVFIFPPSDEQLKSGTASVVCLLNNFYPREAKVQWKVDNALQSGNSQESVTEQDSKDSTYSLSSTLTLSKADYEKHKVYACEVTHQGLSSPVTKSFNRGEC	
